The results in this text go back to a protein production outcome set (Wang et al. 2014).

The nature of the series: label from the status in PepcDB records.

On to “MIRAYKFLLRPTVRQAQALAEMLRDHCSLYNAALQERRDAWRHPSKTTVKYGGQSAQLKDIRAFDPERQGRWSFSSQQATLRRLDKAFAAFFRRVKSGETPGYPRFRGVNWFDTVDFPKDGDGCRWNSTPHDPATRVRLQGVGHVKVNQHRPVAGRVKTVSVKREGRKWFVVLTAEQDQPEPLPATGSAAGIDLGIANFLADSGGGFVPNPRHGRRAADKLQAAQQALARFPRRKAKDRTANHRRAVGKVAQLHGKVRRQRLDHAHKTALGLVRAHDFIAHEDLRIRNMSKAPAPKPDPDKPGTFLPNGAAAKAGLNKSINDAGWGVFLTILHAKAESAGREVIAVDPRDTSRTCPECGHTAKENRPTQEKFHCVACGHHAHADTVAATNVLRAGLVRRNANPA”, for which the protein production result is on record as “failed”.
Take “MIRDVNDNKKKKVDEILSIVKVSSLLFSAMAFLQYTFNLTKYNNKFLAYYSILSILISIFLLSTIYILWSLASLNKYKDHINKIQLIEIILFMIIFIMAILVSGGNSSNNKFLFLFIIITSTIQGGMHRGCVVSVVSSAIILAIDLIFSGNADVNIYFQNDLILAGVFVLTAWTLGFYVKTENDHIKELQTLVNEDGLTGVYNHRYFYDKLREKMHISEVENEKLSLIFMDIDYFKHYNDLYGHQKGDEALKKIGKLLKNIARENDLVARYGGEEFAIILPNTSEEEATKIAERIRNKVEKTYFEGQENQPNANFTVSVGIAVFPDKAKSELELVKCADDALYRAKFFHKNRVETYVSVLDELKRDLNEEENALVASIKTLISIINAKDKYTYSHVERVVIYSRLMAKKLGLSEDEKKQLIYGAYMHDIGKINIPNEILTKKMRLTKEEWEILKQHPKDGVEIIKSVNSLKNVVPLILYHHERYDGFGYPVGLKEKEIPYLARVLTVIDSFDAMTSSRPYNKRKTYDEGLIELERCSGTQFDPEIVGIFSEVVKENINEIQDF”: the protein production entry is given as “failed”.
Under “MIRERSINLGHQVEGAIFTRHNHIVSVDGDGILSFQNNITKVKPNEAIFIPSKVMVRFSFNSNENKSIKVSLYHINGINLNCKQDKVTSLINAYIEVEKLNLTNRETIIELIGSRLEKIKNNRVLYNYDPLEKKIYRLVSKDLKKKWSLEEVCKLTYTSKSTLNRKLKDNQTSMGQIISNARLDYATILITNTSLSVDEISMLSGFNSTSYFCKKFKESHGFSPKQYRKLLAYNQVPLNRI” stands “failed”.
The entry for “MIRHLLVAHDLTPEADVALARAAQLARQHDARVSLLHVYDPGLSASAVKTVSAMLQLKRKEAGLDEDSAIHLFRGQPIDGILQQTRALEPDLLLMGAHHQKTFERFGNTTLDQVVRRSRVPVLLAVREADEPYRQALSALDFSQCACTALRQAYRLLPVEADLHALHVFESPDDGVLGLPRQNAAHLATQAGLIEQLLSDEQERLPGVGPQLSHEVVPGVLPYSLDAALKQRQPELLALGRHSRNALMQALLGNLAQRYLRQPSCDVLVTS” is “failed”; for “MIRHTVVFTLKHASHSLEEKRFLVDAKKILSAIRGVTHFEQLRQISPKIDYHFGFSMEFADQAAYTRYNDHPDHVAFVRDRWVPEVEKFLEIDYVPLGSVV” it is “not failed”.
The entry for “MIRIGNLYVYLKNYIMKFTKLTIAFLSVFFCLVVACGSDGINDDPKTPDVTEPVTPNEPDEPDNPSVVKVPTLQKNVQDEWKIDSIDDGFIYYNYERYDDVSKAQQIVNVLEIDLLSNKYKVEFTYNNGDSLSTTAQVRGAIGGINGGYEQEAIYIRINGTNISEVTLPEGHLRYWKHDGALYSDGKSDIGIIYGGRNGKAAIDTYKQHSAKYLLASAPTLIDDYNPLGETFVGNYTMEQLESFDYEDYRRHQGVRHPRTVVAVTEDKDLLLVTIDGRWAGKAEGMSAKEVTLFLKKHFNPQYALNMDGGGSTTMYVKGKGAAKTDVVNYPTDNGVFNHYGQRRVTTHIIVKRK” is “failed”.
“MIRLILILINILFCHYLYALDCQKRLFDISINEKLSIQESLDELAKYCSFSIIVKDKIAKEKLETLQNSVNIHQMSLDEIFNFFIKEHDLSYDFDGKILRISGINTKIFKISYITSIREGQSITKASVDAKPRQSEYSGSFDDAEDNMIKSMEKFDFWQNIEKEIIVLLKNSHEDYEAKTPIINPNAGLIIVTGTNSQLKSVKNYLQKLENRLKKQVIIDVSILAVSLNESHSSGINWQNFNIGLNSQVNNENSFIQFQNGQGFVKNLGLRANLNFDSIINFLSQNGKTSVLSNPKLMALNNQQAIISVGDTINYQVKESSKGTENGTTVSESYNNYSIFVGILLNILPEISDDGKIMLRINPSLSDFKYPEDNKRQKEPRTIAPDTIQKKLSSVVQVENNQTLILGGLISHDKSNEKNSINFLSKIPILGSLFKGEVLNSKATEIVFIITPSIVDSVNAPSLKDLGFKHYELEHHHHHH”: the protein production entry is “failed”.
Under “MIRPARHIAAMSPYALAQLKAPAGKRLISLSQNESLRPPSRRAIEAAARAGDAGHLYPDPDWSALRAALSGLHGIPVEGILCGNGSMELIACLAQAFADERNAILAPAHGYPFFRSAAQMARARFDLAAERDRHVCVDAMLAAVQPDTRIVFVANPGNPTGTRIPRHELVRLREGLPDDTLLVIDEAYGEFADHLGEAMFDLVGRCDTVVLRTFSKAYGLAGMRVGWGLFPPEIARELRKVMNPNNIAVAGQLAATAALADQDYMVETCRQTAALRDGLRARLSKAGYDVPESFSNFVLIRMESPDDARRADEALRAEGVFLRPQGGVGLADSLRVTIGPAEKIDIAAGLLERWAEGKKT” stands “failed”.
Under “MIRQKSIRRVKPPEDYQARLATPFAVLGLRTDEDWLTDIEYLPPDTPTLVPQTPLAREVCDQLQAYLADPGFVFDLSLHIGGTVHQRRVWQAIQDIPAGATRSYAAIAVELHSAPRAVGQACGANRLPIVIPCHRVIAKSGGLGGFMNASDGLPLTIKRWLLQHEGI” stands “failed”.
Under “MIRQLSLKDYEGVAGSALIDEIRSLGESLQGYNVRHINSTIIGGGVAEILSSLVPLMEDVGLTVNWEVLAGTTEFFHTTKLFHNGMHGQPVNITGEMLENYLAIAQKNQNLLDGDADLVVIHDQQPLGLTAFRGRTRGRWLWYCHVDPRYAVPEVWYFLAPMVATCDAAVFHLPEYARDLEHHHHHH” stands “failed”; under “MIRYLALLALLAAPWVQAADALHDDLPLKYLEQAPAEPRNQPLVIFLHGYGSNEADLFGLRQRLPASYTYVSVRAPQTLEEGSYQWFHRKGQGPYDGVTSELASGAELIGQFVRAALAKYQTQPDKVVLVGFSQGAVMAYEVGLRHPQSVRGIAALSGKILPVLAAQVKNNPSLQRLGIFIGHGTLDQRLPYSDAVDAQRLLQGLSLQPQFHAYPGLGHSISEAEIDDLKGWLQGLNP”, “failed”; under “MISANDLSPAELAALLHFHADAGVEWLLEEEAIDRFAEFEAMKAARRPAAQAQQQRPAAGERPAPGQAQVRPNAAVRPAPAERAASGPQPAIPDGEAVQQARFVAETARSLVELKTAIESFNGCNLKHSARSTIFASGDAESGIMVIGSAPSAEDDREGMPFSGKSGQLFDKMLAAIGLTRSAILLTQVIPWRPPGNRAPSAAEMDICRPFIERQIALAEPKAILLLGNFSARFFFGENDTIHGLRGRWKEIAAADCVIPAIASLHPQDLLTAPVNKRLAWNDLLAFQAKLKSLSLLRN”, “failed”.
“MISKFIEKRMLNMLDEWYSAMSKRKMNHVCTLKEKIDQHLPKIKKNTKLWMRYQLFQARHQLLFENQNGLDSLFDGLYGLEDKMDDELKYYLYFFSGLYEMVKTAPKHAVHHFKKAEQYLAAIHNTFEAADLYYQTAGAYYLMKSPPLSVQYVKKALHIYLHQFGYIKKVITCKLLLAVNYIDQERYEKAEQLFKEIIKKTQQLHDENLLCHAYYNLGFLKATEKKDQEALLYFRKVLKNQEFEMNSPVSYLHCVYESVRALFKTGNITEAKAVLQKGKELSEKVDIQTIYLKLKTLEALYTSAEDPYEQLLEYVLELEKIEAWVDLEVLLEDITEYYKKKDDFEKAAFFIMRG”: the protein production result is on record as “failed”.
